Results on eight molecules are retold here after patent US20160032292, “Aptamer-Guided Gene Targeting” (Georgia Tech Research Corporation, published 2016).

The target of series [1] is T1, I-SceI homing endonuclease (expressed in yeast from GAL1-10 promoter) (UniProt P03882 P03882:1-235).
T1 sequence: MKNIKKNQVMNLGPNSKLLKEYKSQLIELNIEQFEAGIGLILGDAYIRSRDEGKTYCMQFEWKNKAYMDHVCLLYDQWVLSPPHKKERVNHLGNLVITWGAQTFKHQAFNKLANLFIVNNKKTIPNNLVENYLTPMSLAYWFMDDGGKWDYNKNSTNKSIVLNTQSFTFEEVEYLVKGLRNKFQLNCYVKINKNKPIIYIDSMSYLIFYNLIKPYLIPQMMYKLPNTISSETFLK
Kind of series: cell_activity; gene correction over non-binding C.TRP5.54 (62500 vs 8950 per 1e7 cells); galactose. The conditions noted are these: aptamer hairpin at 5' end (predicted). As for the experimental part:
(§1) For this experiment, I-SceI was induced 3 h by addition of galactose (final concentration 2%) to the liquid YPLac medium before transformation by oligonucleotides, and cells were plated on selective media containing glucose. Viability after transformation was calculated by plating to glucose-containing synthetic complete medium. Viability after transformation for the I-SceI-containing strains was typically 20-40% both on glucose and galactose. […] The frequency of gene correction is based on the number of transformants relative to 10⁷ viable cells that formed a colony on galactose-containing synthetic complete medium (or glucose-containing synthetic complete medium depending on the transformation experiment). Yeast cell culture and standard molecular biology techniques were used as previously described
Therefore, we removed the primer regions surrounding the I-Sce I aptamer sequence in the bifunctional oligonucleotides, and this also allowed us to extend the sequence length of the gene-correction donor part of the bifunctional molecule. Oligonucleotides that contained the aptamer sequences from A4 or A7 at the 5′ end of a DNA sequence containing 54 bases of homology to restore the disrupted trp5 gene (A4.TRP5.54 and A7.TRP5.54, Table 1) were tested in yeast strains FRO-155/156 and FRO-526/527 (T5B and T5 in FIG. 1) for their capacity to restore the functionality of the trp5 gene. […]

For series [2], the target named is T2, I-SceI homing endonuclease (UniProt P03882 P03882:1-235).
T2 sequence: T1 sequence
Kind of series: capillary electrophoresis with LIF; binding affinity about 3.16 uM; 50 nM A7, 1 uM I-SceI (FIG. 9D); binding also seen by EMSA. The conditions noted are these: tags: provided by F. Gimble (Purdue University), dialyzed; label: 5' FAM; hairpin with 4-nt loop (mfold prediction). The method, then:
(§2) The protocol for SELEX using capillary electrophoresis (CE) was essentially as described earlier (Berezovski, et al., Nat. Protoc., 1:1359-1369 (2006)), but with a few modifications. Initial calibrations were done with a serial dilution of the aptamer library in RB1. The free DNA run time with 100 nM of the library was determined (FIG. 8A). […] CE was done using a Beckman Coulter (Atlanta, Ga., USA) P/ACE MDQ with laser-induced fluorescence (LIF) detection. The LIF was composed of a 488-nm air-cooled argon ion laser along with an on-board detector. CE runs were carried out with a voltage of 10 kV. The first round of selection began after determination of the collection window based on the bulk affinity analysis. For the initial round of in vitro selection, the DNA library (5 μl at 200 μM) was mixed with 5 μl of selection buffer 3 (SB3) (100 mM Tris-HCl at pH 8.2, 200 mM NaCl and 10 mM MgCl₂) for a final concentration of 100 μM DNA library, 50 mM Tris-HCl at pH 8.2, 100 mM NaCl and 5 mM MgCl₂. This mixture was heated in the BioRad iCycler™ to 94° C. for 1 min, and then cooled to 20° C. at a rate of 0.5° C./s. After the folding of the DNA library, 5 μl of 200 nM I-SceI dissolved in selection buffer 1 (SB1) (50 mM Tris-HCl at pH 8.2, 100 mM NaCl and 5 mM MgCl₂) was added to 5 μl of the DNA-SB3 mixture to make the final volume to 10 μl. […]

Series [3] addresses T1, I-SceI homing endonuclease (expressed …). Description: cell_activity; gene correction over C.TRP1.54; 55R5-3C. As for the experimental part: as §1, with “Sequences of oligonucleotides used for repair can be found in Table 1. Cells from each transformation were diluted appropriately and plated to synthetic complete medium lacking the respective amino acid and containing 2% galactose for I-SceI induction, 2 or 0.2% galactose for HO induction or 2% glucose for I-SceI or HO repression. The exception to this is the experiment to determine the position of the aptamer in the targeting DNA sequence (at the 5′ or 3′ end). For” for “For”, “described […]” for “described”

In series [4] the target is T2, I-SceI homing endonuclease. Kind of series: EMSA; negative control; described as non-binding random control; 3 uM I-SceI, Mg2+, Zn2+, gel result not shown. The conditions noted are these: tags: provided by F. Gimble (Purdue University), dialyzed; label: 5' 32P. As for the experimental part:
The internal region was chosen using a random DNA sequence generator with a specified GC content of 50% (http://www.faculty.ucr.edu/˜mmaduro/random.htm). I-SceI was dialyzed before running the EMSA gels in Run Buffer 1 (RB1), 50 mM Tris-HCl at pH 8.2, as previously described. Bovine serum albumin (BSA) was purchased as a lyophilized powder through Sigma-Aldrich (St. Louis, Mo.) and was greater than 98% pure. BSA stock of 10 mg/ml was made in RB1 buffer.
The buffer conditions used for binding had several components described previously (22). Each reaction consisted of 2 μL 5×EMSA buffer 1 (100 mM Tris-HCl at pH 8.5, 250 mM NaCl, 10 μM ZnCl₂, 10 mM MgCl₂, 10% glycerol), 1 μL BSA (10 mg/ml), 1 μL freshly prepared 20 mM DTT, and 1 μL 100 mM MgCl₂ for a final buffer concentration of 20 mM Tris-HCl, 50 mM NaCl, 2 μM ZnCl₂, […], 1 mg/ml BSA, […], and 2% glycerol. After mixing these components together, 2 μL of dialyzed I-SceI (total of 3 μM) for each reaction was added, bringing the volume to […]. The radiolabeling of the oligonucleotides had varying efficiencies such that the counts per minute (cpm) measurement of the radioactivity for each labeled oligonucleotide was different. […] The radioactivity in the gel was analyzed by Phosphor Imager (Molecular Dynamics—Typhoon Trio Imager™, GE Healthcare Life Sciences, Pittsburgh, Pa.). […]

Series [5] concerns the target T2, I-SceI homing endonuclease. Description: capillary electrophoresis with LIF; binding affinity about 52.49 uM; binding also seen by EMSA. The conditions noted are these: tags: provided by F. Gimble (Purdue University), dialyzed; label: FAM. The method, then:
as §2

Series [6] concerns the target T1, I-SceI homing endonuclease (expressed …). Description: cell_activity; gene correction over C.TRP5.40 (202 vs 13.9); 32-fold with PAGE-purified oligos.
Series [7] has the same target. Description: cell_activity; gene correction over C.LEU2.54; BY4742 and 55R5-3C. The method, then: as §1, with “Sequences of oligonucleotides used for repair can be found in Table 1. Cells from each transformation were diluted appropriately and plated to synthetic complete medium lacking the respective amino acid and containing 2% galactose for I-SceI induction, 2 or 0.2% galactose for HO induction or 2% glucose for I-SceI or HO repression. The exception to this is the experiment to determine the position of the aptamer in the targeting DNA sequence (at the 5′ or 3′ end). For” for “For”, “described […]” for “described”

The target is the same in series [8]. Kind of series: cell_activity; gene correction over C.ADE2.54; BY4742 and 55R5-3C. As for the experimental part:
as §1, with “Sequences of oligonucleotides used for repair can be found in Table 1. Cells from each transformation were diluted appropriately and plated to synthetic complete medium lacking the respective amino acid and containing 2% galactose for I-SceI induction, 2 or 0.2% galactose for HO induction or 2% glucose for I-SceI or HO repression. The exception to this is the experiment to determine the position of the aptamer in the targeting DNA sequence (at the 5′ or 3′ end). For” for “For”, “described […]” for “described”

B1: A7.TRP5.54 (ssDNA)
DNA: GCGGGCGCTGTTGACAGCGGTCAGGTGGATGGGATGGGAAAAGGGTTTTGATGAAGCTGTCGCGGATCCCACATTCTGGGAAGACTTCAA
In the case of B1, the activity in series [1] is 7 fold. As for GCGGGCGCTGTTGACAGCGGTCAGGTGGATGGGATG (ssDNA) [A7], in series [2], the Kd was 3.16 µM.

B2: A7.TRP1.54 (ssDNA)
DNA: GCGGGCGCTGTTGACAGCGGTCAGGTGGATGGGATGGTGGCAAGAATACCAAGAGTTCCTCGGTTTGCCAGTTATTAAAAGACTCGTATT
B2 came in with an activity in series [3] of 2.5 fold.

B3: P1-r-P2 (ssDNA)
DNA: CTTCTGCCCGCCTCCTTCCGGTCGGGCACACCTGTCATACCCAATCTCGAGGCCAGACGAGATAGGCGGACACT
Consider B3, for which the binding result in series [4] is “no binding”.

The molecule TGAAGGCCAAAACGGCTGAATCGATAGT (ssDNA) [A4] gave a Kd in series [5] of 52.5 µM.

B4: A7.TRP5.40 (ssDNA)
DNA: GCGGGCGCTGTTGACAGCGGTCAGGTGGATGGGATGGGTTTTGATGAAGCTGTCGCGGATCCCACATTCTGGGAAG
For the molecule B4, the activity in series [6] turned out to be 15 fold.

B5: A7.LEU2.54 (ssDNA)
DNA: GCGGGCGCTGTTGACAGCGGTCAGGTGGATGGGATGCGCTTTCATGGCCCTACAACATGAGCCACCATTGCCTATTTGGTCCTTGGATAA
Consider B5, for which, in series [7], the activity came to 2 fold.

B6: A7.ADE2.54 (ssDNA)
DNA: GCGGGCGCTGTTGACAGCGGTCAGGTGGATGGGATGGGACATTATACCATTGATGCTTGCGTCACTTCTCAATTTGAAGCTCATTTGAGA
Turning to B6, the activity in series [8] stood at 3 fold.
